For this assay, the target named is BG505 SOSIP.664 gp140 trimer (HIV-1 isolate BG505). Put plainly: single-particle negative-stain electron microscopy.

This is an account of results in USRE50268.

B1: PGDM1400 Fab (Fab, V domains shown)
VH: QVHLTQSGPEVRKPGTSVKVSCKAPGNTLKTYDLHWVRSVPGQGLQWMGWISHEGDKKVIVERFKAKVTIDWDRSTNTAYLQLSGLTSGDTAVYYCAKGSKHRLRDYALYDDDGALNWAVDVDYLSNLEFWGQGTAVTVSS
VL: DFVLTQSPHSLSVTPGESASISCKSSHSLIHGDRNNYLAWYVQKPGRSPQLLIYLASSRASGVPDRFSGSGSDKDFTLKISRVETEDVGTYYCMQGRESPWTFGQGTKVDIK
modifications: sulfated tyrosine at position 100F (Tys100F), seen in the electron density map of the Fab crystal structure
Molecule B1 yielded a stoichiometry (Fab per trimer) of 1.
